Test results reported in US7387779B2, “Anti-angiogenic proteins and fragments and methods of use thereof” (Beth Israel Deaconess Medical Center, priority 1998, dated 2008).

Key:
Goodpasture autoantibody = assay: Reactivity with Goodpasture autoantibody (western blotting); format: binding, human
Description: Goodpasture syndrome is an autoimmune disease characterized by pulmonary hemorrhage and/or rapidly progressing glomerulonephritis, which are caused by the disruption of glomerular and alveolar basement membranes through immune injury associated with autoantibody activity against α3(IV) NC1. Recently, the most probable disease-related pathogenic epitope was identified in the N-terminal portion (Kalluri, R. et al., 1996, J. Biol. Chem. 271:9062-8; Hellmark, T. et al., 1999, Kidney Int. 55:938-44), and was then further confined within the N-terminal 40 amino acids (Hellmark, T. et al., 1999, J. Biol. Chem. 274:25862-8; Netzer, K. O. et al., 1999, J. Biol. Chem. 274:11267-74). The N-terminal Tumstatin-44-131 consists of residues 44-131 of Tumstatin, which is outside of the Goodpasture autoepitope. To further confirm that Tumstatin-44-131 would not be detected by Goodpasture autoantibody, antisera from patients with Goodpasture was used for western blotting.

WM-164 cells [1] = assay: Attachment of melanoma cells to coated plates; format: cell-based, human
Description: Tumstatin and all three of the deletion mutants […] attachment of WM-164 melanoma cells to the plates.

C-PAE = assay: Endothelial tube formation assay (Table 4); format: cell-based, bovine
Description: Deletion fragments of tumstatin were cloned into bacterial expression vectors, expressed, purified using nickel chromoatography, and then analyzed for in vitro anti-angiogenic, and associated, activity. Special efforts were made to ensure the removal of contaminating endotoxins from the protein preparations. Full-length Tumstatin, Tumstatin-N53 and two additional deletion mutants (Tum-2C and Tum-KE) were made and tested. The deletion mutants were tested for endothelial cell proliferation, cell cycle progression, apoptosis, and endothelial tube formation.

WM-164 cells [2] = assay: Melanoma cell proliferation, methylene blue staining; format: cell-based, human; conditions: for Relative Cell No. (%) WM-164: 3% FCS, 50 μg/ml recombinant protein
Description: In the methylene-blue staining method, 7000 cells were plated into each well of a 96-well plate, and treated as described above. Cells were then counted using the method of Oliver et al. (1989, J. Cell. Sci. 92:513-8). After 48 hours of treatment, all wells were washed with 100 μl of PBS, and the cells fixed with 10% formalin in neutral-buffered saline (Sigma Chemical Co., St. Louis, Mo., USA). The cells were then stained with 1% methylene blue (Sigma) in 0.01M borate buffer, pH 8.5. Wells were washed with 0.01M borate buffer, and the methylene blue extracted from the cells with 0.1N HCl/ethanol, and the absorbance measured in a microplate reader (Bio-Rad, Hercules, Calif., USA) at 655 nm. Polymyxin B (Sigma) at a final concentration of 5 μg/ml was used to inactivate endotoxin (Liu, S. et al., 1997, Clin. Biochem. 30:455-63).
Endothelial cell proliferation was performed by ^3H-thymidine incorporation or methylene blue staining as described above in Example 25. C-PAE cells (passages 2-4) were grown to confluence and kept contact inhibited for 48 hours. 786-O, PC-3 and WM-164 cells were used as non-endothelial controls, and were cultured as described in Example 25, above. HPE (human primary prostate epithelial cells) were cultured in keratinocyte-SFM supplemented with bovine pituitary and recombinant human EGF (Life Technologies/Gibco BRL, Gaithersburg, Md., USA). The melanoma cell line WM-164 was obtained from Dr. Meenhard Herlyn at the Wistar Institute (Philadelphia, Pa., USA), and was cultivated in 78% MCDB-153 medium, 10% L-15 medium, 10% tryptose phosphate broth, 2% FBS, and 50 units/ml insulin, as described by Herlyn et al. (1990, Adv. Cancer Res. 54:213-34).
Proliferation of endothelial cells (C-PAE cells) and WM-164 melanoma cells was assayed by methylene blue staining, as described above in Examples 25 and 34. The results are shown in FIGS. 33A and 33B, which are a pair of graphs showing the effect of increasing concentration (x-axis) of Tumstatin, Tum-1, Tum-2, Tum-3 and Tum-4 on the relative number (y-axis) of C-PAE cells (FIG. 33A) and WM-164 cells (FIG. 33B). […] Tum-4, however, did have anti-proliferative activity in this cell line. […] Only Tum-4 inhibited WM-164 melanoma cells.

B1: Tum-1: residues 54 to 244 of Tumstatin, lacking the N-terminal 53 amino acids (SEQ ID NO:22) (protein)
chain: QRAHGQDLGTLGSCLQRFTTMPFLFCNVNDVCNFASRNDYSYWLSTPALMPMNMAPITGRALEPYISRCTVCEGPAIAIAVHSQTTDIPPCPHGWISLWKGFSFIMFTSAGSEGTGQALASPGSCLEEFRASPFLECHGRGTCNYYSNSYSFWLASLNPERMFRKPIPSTVKAGELEKIISRCQVCMKKRH
modifications: Tum-1 (Tumstatin N-53) (amino acids 54-244 of SEQ ID NO10)
detection by antisera / autoantibodies from patients with Goodpasture syndrome (Goodpasture autoantibody): did not bind autoantibodies | binding of WM-164 cells to coated plates (WM-164 cells [1]): bind to WM-164 cells | Tube (Endothelial tube formation assay) (C-PAE): active | effect on proliferation of WM-164 cells (WM-164 cells [2]): not affected | Relative Cell No. (%) WM-164 (WM-164 cells [2]): 100.7 ± 2.7%

B2: Tum-4: residues 181 to 244 of Tumstatin (SEQ ID NO:25) (protein)
chain: EFRASPFLECHGRGTCNYYSNSYSFWLASLNPERMFRKPIPSTVKAGELEKIISRCQVCMKKRH
modifications: Tum-4 (amino acids 181-244 of SEQ ID NO10)
binding of WM-164 cells to coated plates (WM-164 cells [1]): bind to WM-164 cells | inhibition of WM-164 melanoma cells (WM-164 cells [2]; 50 μg/ml): 46.1% | Relative Cell No. (%) WM-164 (WM-164 cells [2]): 52.4 ± 3.4 %

B3: Tumstatin-44-131: residues 44 to 131 of full-length Tumstatin (SEQ ID NO:33) (protein)
chain: FSFLFVQGNQRAHGQDLGTLGSCLQRFTTMPFLFCNVNDVCNFASRNDYSYWLSTPALMPMNMAPITGRALEPYISRCTVCEGPAIAI
modifications: Tumstatin-45-132 (amino acids 45-132 of SEQ ID NO10)
detection by antisera / autoantibodies from patients with Goodpasture syndrome (Goodpasture autoantibody): failed to detect | Tube (Endothelial tube formation assay) (C-PAE): active | effect on proliferation of WM-164 cells (WM-164 cells [2]): not observed

B4: Tum-2: residues 1 to 132 of Tumstatin (SEQ ID NO:23) (protein)
chain: GLKGKRGDSGSPATWTTRGFVFTRHSQTTAIPSCPEGTVPLYSGFSFLFVQGNQRAHGQDLGTLGSCLQRFTTMPFLFCNVNDVCNFASRNDYSYWLSTPALMPMNMAPITGRALEPYISRCTVCEGPAIAI
modifications: Tum-2 (amino acids 1-132 of SEQ ID NO10)
binding of WM-164 cells to coated plates (WM-164 cells [1]): bind to WM-164 cells | effect on proliferation of WM-164 cells (WM-164 cells [2]): not affected | Relative Cell No. (%) WM-164 (WM-164 cells [2]): 96.2 ± 3.7%

B5: Tumstatin: NC1 domain of the α3 chain of type IV collagen, residues 1-244 (SEQ ID NO:10) (protein, listed as Homo sapiens)
chain: GLKGKRGDSGSPATWTTRGFVFTRHSQTTAIPSCPEGTVPLYSGFSFLFVQGNQRAHGQDLGTLGSCLQRFTTMPFLFCNVNDVCNFASRNDYSYWLSTPALMPMNMAPITGRALEPYISRCTVCEGPAIAIAVHSQTTDIPPCPHGWISLWKGFSFIMFTSAGSEGTGQALASPGSCLEEFRASPFLECHGRGTCNYYSNSYSFWLASLNPERMFRKPIPSTVKAGELEKIISRCQVCMKKRH
detection by antisera / autoantibodies from patients with Goodpasture syndrome (Goodpasture autoantibody): detected | binding of WM-164 cells to coated plates (WM-164 cells [1]): bind to WM-164 cells | Tube (Endothelial tube formation assay) (C-PAE): active | effect on proliferation of WM-164 cells (WM-164 cells [2]): no inhibitory effects | Relative Cell No. (%) WM-164 (WM-164 cells [2]): 100.0 ± 2.9%
